Experiment: yeast display, Sf9 membrane polyspecificity reagent, FACS + sequencing; frameworks hold sequencing errors
Summary of the method: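 Sorting gates, low and high (top ~1%), were placed on anti-HA fluorescence to track expression and on streptavidin fluorescence to track reagent binding. A clone's polyreactivity label is taken from the gate it came out of. The reagent was 10% biotinylated, detergent-solubilized Sf9 membrane, applied for 1 hour at 4 °C to galactose-induced yeast display cells.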

Sequence	polyreactivity (PSR sort gate)
QVQLVESGGGLVQAGGSLRLSCAASGYTFGSNAMGWYRQAPGKERELVAAIRYRGDRTYYADSVKGRFTISRDNAKNTVYLQMNSLKPEDTAVYYCAATYGYNTLYRPLRFDYWGQGTQVTVSS	high polyreactivity
QVQLVESGGGLVQAGGSLRLSCAASGYTFGSNAMGWYRQAPGKERELVADIDWSSGNTYYADSVKGRFTISRDNAKNTVYVQMNSLKPEDTAVYYCAAELLIYYSWYWYDYWGQGTQVTVSS	high polyreactivity
QVQLVESGGGLVQAGGSLRLSCAASGYTFGSYAMGWYRQAPGKERELVAAISKRGGRTYYADSVKGRFTISRDNAKNTVYLQMNSLKPEDTAVYYCAKDYPKYDYWGQGTQVTVSS	high polyreactivity
QVQLVESGGGLVQAGGSLRLSCAASGYTFGVNAMGWYRQAPGKERELVAAISRSGGRTYYADSVKGRFTISRDNAKNTVYLQMTSLKPEDTAVYYCAKDRSGSYYNFPEYDYWGQGTQVTVSS	high polyreactivity
QVQLVESGGGLVQAGGSLRLSCAASGYTFGVYVMGWYREAPGKERELVAAISGSTYYADSVKGRFTISRDNAKNTVYVQMNSLKPEDTAVYYCAAESYFFSPRTREKFDYWGQGTQVTVSS	low polyreactivity
QVQLVESGGGLVQAGGSLRLSCAASGYTFGVYVMGWYRQAPGKERELVAAISGSTYYADSVKGRFTISRDNAKNTVYLQMNSLKPEDTAVYYCAAESYFFSPRTREKFDYWGQGTQVTVTS	low polyreactivity
QVQLVESGGGLVQAGGSLRLSCAASGYTFIRNGMGWYRQAPGKERDLVAAISRRGGSTYYADSVKGRFTISRDNAKNTVYLQMNRLKPEDTAVYYCAKASTERMGSWGQGTQVTVSS	high polyreactivity
QVQLVESGGGLVQAGGSLRLSCAASGYTFIYYAMGWYRQAPGTERELVATISIDGSTNYADSVKGRFTISRDNAKNTVYLQMNSLKPEDTAVYYCNRERYEDYDYWGQGTQVTVSS	high polyreactivity
QVQLVESGGGLVQAGGSLRLSCAASGYTFKRYAMGWYRQAPGKERELVAAISQSGTNTYYADSVKGRFTISRDNAKNTVYLQMNSLKPEDTAVYYCAAKPPRRYQLMDYWGQGTQVTVSS	high polyreactivity
QVQLVESGGGLVQAGGSLRLSCAASGYTFKSYALGWYRQAPGKERELVASISNDGSTNYADSVKGRFTISRDNAKNTVYLQMNSLKPEDTAVYYCNADFYDAPSQWARTGFDYWGQGTQVTVSS	low polyreactivity
QVQLVESGGGLVQAGGSLRLSCAASGYTFKTNDMGRYRQAPGKEREFVAAIDSGGNTYYADSVKGRFTISRDNAKITVYLQMNSLIPEDTAVYYCGAYRDYQYDYWGQGTQVTVSS	low polyreactivity
QVQLVESGGGLVQAGGSLRLSCAASGYTFKYYTMGWSRQAPGKERELVAAITGGGSTYYADSVKGRFTISRDNAKNTVYLQMNSLKPEDTAVYYCAATVLYGYHKAYDYWGQGTQVTVSS	high polyreactivity
QVQLVESGGGLVQAGGSLRLSCAASGYTFKYYTMGWYRQAPGKESELVAAITRSGGSTYYADSVKGRFTISRDNAKNTVYLQINSLKPEDTAVYYCAARAAYKQPVSFDYWGQGTQVTVSS	high polyreactivity
QVQLVESGGGLVQAGGSLRLSCAASGYTFLGNAMGWYRQAPGKERELVAAISSGGTTYYADSVKGRFTISRDNAKNTVYLQMNSMKPEDTSVYYCADDRVGLSSGYDFWGQGTQVTVSS	low polyreactivity
QVQLVESGGGLVQAGGSLRLSCAASGYTFLGNAMGWYRQAPGKERELVAAISSGGTTYYADSVKGRFTISRDNEKNTVYFQMNSLKPEDTAVYFCATVFRDYDFNHWGQGTQVTVSS	low polyreactivity
QVQLVESGGGLVQAGGSLRLSCAASGYTFLPYALGWYRQAPGKERELVAAINWGGGSTYYADSVKGRFTISRDNAKNTVYLQMNSLKPEDTAVYYCNAKRPFGGLDYWGQGSQVTVSS	low polyreactivity
QVQLVESGGGLVQAGGSLRLSCAASGYTFLPYAMGLYRQAPGKERELVADISSGGTTYYADSVKGRFTISRDNAKNTVYLQMNSLKPEDTAVYYCARASLPTYDWGQGTQVTVSS	low polyreactivity

Source: the nanobody polyreactivity screen of Harvey et al. (2022)
